# Data published in article PMC11236199, “Variation in structural motifs within SARS-related coronavirus spike proteins” (PLOS Pathogens, 2024).
# Molecular target: the molecule itself
# Assay: cryo-EM structure
protein,measurement,value
"Bat SARS-like coronavirus WIV1 spike protein ectodomain (domain or fragment, also called bCoV-WIV1; bat SL-CoV WIV1) not shown",stoichiometry N,3
